Reference: patent US12679878B2, “CRF2 receptor agonists and their use in therapy” (SANOFI, priority 2020, dated 2026)
Starred links: 1 amine or outer side, 2 acyl side, 3 side chain; linkers in the order of their positions; H or OH if unused. Groups on a side chain read outwards from the residue. No end group written: not given here. *: point of attachment. C20 diacid = O=C(O)CCCCCCCCCCCCCCCCCCC(=O)*; C18 diacid = O=C(O)CCCCCCCCCCCCCCCCC(=O)*; γGlu = O=C(O)[C@H](CCC(=O)[*:2])N[*:1]; AEEA = NCCOCCOCC(=O)O

T1: anti-target CRF1R receptor (UniProt P34998 24-415, limits assumed)
T1 sequence (looked up): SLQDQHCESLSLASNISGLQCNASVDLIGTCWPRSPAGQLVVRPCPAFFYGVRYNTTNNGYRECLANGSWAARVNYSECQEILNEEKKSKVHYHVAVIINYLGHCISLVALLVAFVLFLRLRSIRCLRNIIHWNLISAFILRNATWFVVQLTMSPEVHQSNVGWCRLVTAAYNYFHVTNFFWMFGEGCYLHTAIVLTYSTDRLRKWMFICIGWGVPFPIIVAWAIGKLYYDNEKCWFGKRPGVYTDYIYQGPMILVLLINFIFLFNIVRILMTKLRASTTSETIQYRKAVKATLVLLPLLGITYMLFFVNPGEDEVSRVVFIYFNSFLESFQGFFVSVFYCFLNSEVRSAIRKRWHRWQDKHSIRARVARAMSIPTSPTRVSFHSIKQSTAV


What was measured:
rat CRF2R α receptor = rat CRF2R α receptor (rat, UniProt P47866 20-411); test: cell-based or functional assay
Chain of rat CRF2R α receptor (P47866 20-411): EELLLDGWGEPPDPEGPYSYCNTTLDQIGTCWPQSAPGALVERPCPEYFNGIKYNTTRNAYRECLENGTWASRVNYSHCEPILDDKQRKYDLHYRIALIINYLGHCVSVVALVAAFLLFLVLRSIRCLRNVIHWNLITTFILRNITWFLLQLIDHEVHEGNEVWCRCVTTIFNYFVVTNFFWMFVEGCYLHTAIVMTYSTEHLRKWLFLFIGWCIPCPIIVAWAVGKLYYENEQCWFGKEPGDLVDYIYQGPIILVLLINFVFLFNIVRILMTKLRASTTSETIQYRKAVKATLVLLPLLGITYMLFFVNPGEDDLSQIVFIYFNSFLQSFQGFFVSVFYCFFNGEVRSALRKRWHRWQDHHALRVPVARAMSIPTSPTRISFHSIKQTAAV

[1] = target: T1, anti-target CRF1R receptor; test: cell-based or functional assay

| Binder | EC50 [nM], 0% HSA (cAMP, A7R5 cells) (rat CRF2R α receptor) [nM] | EC50[nM] 0% HSA (cAMP, CRF1R-overexpression CHO cells) [1] [nM] | Emax (%) (cAMP, CRF1R-overexpression CHO cells) [1] |
| --- | --- | --- | --- |
| FTLSLDVPTKIK([AEEA-AEEA-γGlu-C18 diacid])QILLKQQKQKKERQQAETNKQLLERV-NH2 (N-terminus assumed; SMILES CC[C@H](C)[C@H](NC(=O)[C@H](CCC(N)=O)NC(=O)[C@H](CCCCNC(=O)COCCOCCNC(=O)COCCOCCNC(=O)CC[C@H](NC(=O)CCCCCCCCCCCCCCCCC(=O)O)C(=O)O)NC(=O)[C@@H](NC(=O)[C@H](CCCCN)NC(=O)[C@@H](NC(=O)[C@@H]1CCCN1C(=O)[C@@H](NC(=O)[C@H](CC(=O)O)NC(=O)[C@H](CC(C)C)NC(=O)[C@H](CO)NC(=O)[C@H](CC(C)C)NC(=O)[C@@H](NC(=O)[C@@H](N)Cc1ccccc1)[C@@H](C)O)C(C)C)[C@@H](C)O)[C@@H](C)CC)C(=O)N[C@@H](CC(C)C)C(=O)N[C@@H](CC(C)C)C(=O)N[C@@H](CCCCN)C(=O)N[C@@H](CCC(N)=O)C(=O)N[C@@H](CCC(N)=O)C(=O)N[C@@H](CCCCN)C(=O)N[C@@H](CCC(N)=O)C(=O)N[C@@H](CCCCN)C(=O)N[C@@H](CCCCN)C(=O)N[C@@H](CCC(=O)O)C(=O)N[C@@H](CCCNC(=N)N)C(=O)N[C@@H](CCC(N)=O)C(=O)N[C@@H](CCC(N)=O)C(=O)N[C@@H](C)C(=O)N[C@@H](CCC(=O)O)C(=O)N[C@H](C(=O)N[C@@H](CC(N)=O)C(=O)N[C@@H](CCCCN)C(=O)N[C@@H](CCC(N)=O)C(=O)N[C@@H](CC(C)C)C(=O)N[C@@H](CC(C)C)C(=O)N[C@@H](CCC(=O)O)C(=O)N[C@@H](CCCNC(=N)N)C(=O)N[C@H](C(N)=O)C(C)C)[C@@H](C)O) [peptide of SEQ ID NO: 53] | 1.32 | > 1000 | 4.14 |
| FTLSLDVPIKLK([AEEA-AEEA-γGlu-C20 diacid])QILLKQQKQKKERQQAETNVQLLERV-NH2 [peptide of SEQ ID NO: 62] | 2.9 | > 1000 | 2.28 |
| FTLSLDVPIKLK([AEEA-AEEA-γGlu-C18 diacid])QILLKQQKQKKERQQAETNVQLLERV-NH2 (N-terminus assumed; SMILES CC[C@H](C)[C@H](NC(=O)[C@H](CCC(N)=O)NC(=O)[C@H](CCCCNC(=O)COCCOCCNC(=O)COCCOCCNC(=O)CC[C@H](NC(=O)CCCCCCCCCCCCCCCCC(=O)O)C(=O)O)NC(=O)[C@H](CC(C)C)NC(=O)[C@H](CCCCN)NC(=O)[C@@H](NC(=O)[C@@H]1CCCN1C(=O)[C@@H](NC(=O)[C@H](CC(=O)O)NC(=O)[C@H](CC(C)C)NC(=O)[C@H](CO)NC(=O)[C@H](CC(C)C)NC(=O)[C@@H](NC(=O)[C@@H](N)Cc1ccccc1)[C@@H](C)O)C(C)C)[C@@H](C)CC)C(=O)N[C@@H](CC(C)C)C(=O)N[C@@H](CC(C)C)C(=O)N[C@@H](CCCCN)C(=O)N[C@@H](CCC(N)=O)C(=O)N[C@@H](CCC(N)=O)C(=O)N[C@@H](CCCCN)C(=O)N[C@@H](CCC(N)=O)C(=O)N[C@@H](CCCCN)C(=O)N[C@@H](CCCCN)C(=O)N[C@@H](CCC(=O)O)C(=O)N[C@@H](CCCNC(=N)N)C(=O)N[C@@H](CCC(N)=O)C(=O)N[C@@H](CCC(N)=O)C(=O)N[C@@H](C)C(=O)N[C@@H](CCC(=O)O)C(=O)N[C@H](C(=O)N[C@@H](CC(N)=O)C(=O)N[C@H](C(=O)N[C@@H](CCC(N)=O)C(=O)N[C@@H](CC(C)C)C(=O)N[C@@H](CC(C)C)C(=O)N[C@@H](CCC(=O)O)C(=O)N[C@@H](CCCNC(=N)N)C(=O)N[C@H](C(N)=O)C(C)C)C(C)C)[C@@H](C)O) [peptide of SEQ ID NO: 54] | 1.51 | > 1000 | 2.72 |
| FTLSLDVPIKLK([AEEA-AEEA-γGlu-C20 diacid])QILLEQQKQKKERQQAETNVQLLERV-NH2 [peptide of SEQ ID NO: 63] | 4.73 | > 1000 | 4.68 |
| FTLSLDVPTKIK([AEEA-AEEA-γGlu-C20 diacid])QILLKQQKQKKERQQAETNKQLLERV-NH2 [peptide of SEQ ID NO: 61] | 0.94 | > 1000 | 3.31 |
| FTLSLDVPTKIK([AEEA-AEEA-γGlu-C20 diacid])QILLKQQKQKKERQQAEKNKQLLERV-NH2 [peptide of SEQ ID NO: 60] | 1.35 | > 1000 | 4.84 |
| FTLSLDVPTKIK([AEEA-AEEA-γGlu-C20 diacid])QILFKQQKQKKERQQAEKNKQLLEQI-NH2 [peptide of SEQ ID NO: 58] | 0.72 | > 1000 | 9.12 |
| IVLSLDVPIKLK([AEEA-AEEA-γGlu-C18 diacid])QILLEQEKQKKQREQAETNKQILAQV-NH2 (N-terminus assumed; SMILES CC[C@H](C)[C@H](N)C(=O)N[C@H](C(=O)N[C@@H](CC(C)C)C(=O)N[C@@H](CO)C(=O)N[C@@H](CC(C)C)C(=O)N[C@@H](CC(=O)O)C(=O)N[C@H](C(=O)N1CCC[C@H]1C(=O)N[C@H](C(=O)N[C@@H](CCCCN)C(=O)N[C@@H](CC(C)C)C(=O)N[C@@H](CCCCNC(=O)COCCOCCNC(=O)COCCOCCNC(=O)CC[C@H](NC(=O)CCCCCCCCCCCCCCCCC(=O)O)C(=O)O)C(=O)N[C@@H](CCC(N)=O)C(=O)N[C@H](C(=O)N[C@@H](CC(C)C)C(=O)N[C@@H](CC(C)C)C(=O)N[C@@H](CCC(=O)O)C(=O)N[C@@H](CCC(N)=O)C(=O)N[C@@H](CCC(=O)O)C(=O)N[C@@H](CCCCN)C(=O)N[C@@H](CCC(N)=O)C(=O)N[C@@H](CCCCN)C(=O)N[C@@H](CCCCN)C(=O)N[C@@H](CCC(N)=O)C(=O)N[C@@H](CCCNC(=N)N)C(=O)N[C@@H](CCC(=O)O)C(=O)N[C@@H](CCC(N)=O)C(=O)N[C@@H](C)C(=O)N[C@@H](CCC(=O)O)C(=O)N[C@H](C(=O)N[C@@H](CC(N)=O)C(=O)N[C@@H](CCCCN)C(=O)N[C@@H](CCC(N)=O)C(=O)N[C@H](C(=O)N[C@@H](CC(C)C)C(=O)N[C@@H](C)C(=O)N[C@@H](CCC(N)=O)C(=O)N[C@H](C(N)=O)C(C)C)[C@@H](C)CC)[C@@H](C)O)[C@@H](C)CC)[C@@H](C)CC)C(C)C)C(C)C) [peptide of SEQ ID NO: 67] | 0.66 | > 1000 | 9.18 |
